The chains are these.
B1: Far upstream element-binding protein 3, residues 75 to 150; numbered along this chain, Q96I24 (parent)
chain: RTVITEEFKVPDKMVGFIIGRGGEQISRIQAESGCKIQIASESSGIPERPCVLTGTPESIEQAKRLLGQIVDRCRN

± gives the uncertainty stated by the source.

In the data set the parent is B1. As to the kind of experiment: abundance fitness (aPCA) (normalised: wild type 0, dead -1); higher = more abundant; growth selection in yeast, the domain comes from the species named. The conditions noted are these: Homo sapiens.
On to RTVITEEFKVPDKMVGFIIGRGGEQISRIQAESGCKFQIASESSGIPERPCVLTGTPESIEQAKRLLGQIVDRCRN [I37F], for which the abundance fitness was -0.447 ± 0.06.
For the variant RTVITEEFKVPDKMVGFIIGRGGEQISRIQAESGCKDQIASESSGIPERPCVLTGTPESIEQAKRLLGQIVDRCRN [I37D], the abundance fitness was -0.528 ± 0.051.
Take RTVITEEFKVPDKMVGFIIGRGGEQISRIQAESGCKKQIASESSGIPERPCVLTGTPESIEQAKRLLGQIVDRCRN [I37K]: the abundance fitness was -0.522 ± 0.046.
For RTVITEEFKVPDKMVGFIIGRGGEQISRIQAESGCKEQIASESSGIPERPCVLTGTPESIEQAKRLLGQIVDRCRN [I37E] the value was -0.595 ± 0.038; for RTVITEEFKVPDKMVGFIIGRGGEQISRIQAESGCKAQIASESSGIPERPCVLTGTPESIEQAKRLLGQIVDRCRN [I37A], -0.515 ± 0.034.
Turning to RTVITEEFKVPDKMVGFIIGRGGEQISRIQAESGCKHQIASESSGIPERPCVLTGTPESIEQAKRLLGQIVDRCRN [I37H], the abundance fitness is -0.816 ± 0.087.
As for RTVITEEFKVPDKMVGFIIGRGGEQISRIQAESGCKGQIASESSGIPERPCVLTGTPESIEQAKRLLGQIVDRCRN [I37G], the figure is -0.664 ± 0.028; as for RTVITEEFKVPDKMVGFIIGRGGEQISRIQAESGCKLQIASESSGIPERPCVLTGTPESIEQAKRLLGQIVDRCRN [I37L], -0.158 ± 0.031; as for RTVITEEFKVPDKMVGFIIGRGGEQISRIQAESGCKMQIASESSGIPERPCVLTGTPESIEQAKRLLGQIVDRCRN [I37M], -0.232 ± 0.039.
Take RTVITEEFKVPDKMVGFIIGRGGEQISRIQAESGCKCQIASESSGIPERPCVLTGTPESIEQAKRLLGQIVDRCRN [I37C]: the abundance fitness was -0.239 ± 0.04.
Regarding RTVITEEFKVPDKMVGFIIGRGGEQISRIQAESICKIQIASESSGIPERPCVLTGTPESIEQAKRLLGQIVDRCRN [G34I], the abundance fitness is -0.736 ± 0.2.
Turning to RTVITEEFKVPDKMVGFIIGRGGEQISRIQAESPCKIQIASESSGIPERPCVLTGTPESIEQAKRLLGQIVDRCRN [G34P], the abundance fitness is -0.775 ± 0.067.
For RTVITEEFKVPDKMVGFIIGRGGEQISRIQAESLCKIQIASESSGIPERPCVLTGTPESIEQAKRLLGQIVDRCRN [G34L] the value was -0.264 ± 0.036; for RTVITEEFKVPDKMVGFIIGRGGEQISRIQAESDCKIQIASESSGIPERPCVLTGTPESIEQAKRLLGQIVDRCRN [G34D], -0.073 ± 0.047.
Consider RTVITEEFKVPDKMVGFIIGRGGEQISRIQAESHCKIQIASESSGIPERPCVLTGTPESIEQAKRLLGQIVDRCRN [G34H], for which the abundance fitness is -0.155 ± 0.064.
For RTVITEEFKVPDKMVGFIIGRGGEQISRIQAESFCKIQIASESSGIPERPCVLTGTPESIEQAKRLLGQIVDRCRN [G34F] the value was -0.292 ± 0.07; for RTVITEEFKVPDKMVGFIIGRGGEQISRIQAESQCKIQIASESSGIPERPCVLTGTPESIEQAKRLLGQIVDRCRN [G34Q], -0.06 ± 0.049; for RTVITEEFKVPDKMVGFIIGRGGEQISRIQAESKCKIQIASESSGIPERPCVLTGTPESIEQAKRLLGQIVDRCRN [G34K], -0.027 ± 0.047.
Take RTVITEEFKVPDKMVGFIIGRGGEQISRIQAESNCKIQIASESSGIPERPCVLTGTPESIEQAKRLLGQIVDRCRN [G34N]: the abundance fitness was -0.046 ± 0.11.
As for RTVITEEFKVPDKMVGFIIGRGGEQISRIQAESRCKIQIASESSGIPERPCVLTGTPESIEQAKRLLGQIVDRCRN [G34R], the figure is -0.079 ± 0.03.
Turning to RTVITEEFKVPDKMVGFIIGRGGEQISRIQAESTCKIQIASESSGIPERPCVLTGTPESIEQAKRLLGQIVDRCRN [G34T], the abundance fitness was -0.268 ± 0.044.
For RTVITEEFKVPDKMVGFIIGRGGEQISRIQAESSCKIQIASESSGIPERPCVLTGTPESIEQAKRLLGQIVDRCRN [G34S] the value was -0.079 ± 0.043.
On to RTVITEEFKVPDKMVGFIIGRGGEQISRIQAESWCKIQIASESSGIPERPCVLTGTPESIEQAKRLLGQIVDRCRN [G34W], for which the abundance fitness is -0.665 ± 0.048.
For RTVITEEFKVPDKMVGFIIGRGGEQISRIQAESCCKIQIASESSGIPERPCVLTGTPESIEQAKRLLGQIVDRCRN [G34C], the abundance fitness was -0.268 ± 0.054.
RTVITEEFKVPDKMVGFIIGRGGEQISRIQAESACKIQIASESSGIPERPCVLTGTPESIEQAKRLLGQIVDRCRN [G34A]: the abundance fitness is -0.124 ± 0.031.
For RTVITEEFKVPDKMVGFIIGRGGEQISRIQAESECKIQIASESSGIPERPCVLTGTPESIEQAKRLLGQIVDRCRN [G34E], the abundance fitness is -0.089 ± 0.033.
Regarding RTVITEEFKVPDKMVGFIIGRGGEQISRIQAESYCKIQIASESSGIPERPCVLTGTPESIEQAKRLLGQIVDRCRN [G34Y], the abundance fitness is -0.361 ± 0.074.
Turning to RTVITEEFKVPDKMVGFIIGRGGEQISRIQAESGLKIQIASESSGIPERPCVLTGTPESIEQAKRLLGQIVDRCRN [C35L], the abundance fitness is -0.763 ± 0.046.
As for RTVITEEFKVPDKMVGFIIGRGGEQISRIQAESGKKIQIASESSGIPERPCVLTGTPESIEQAKRLLGQIVDRCRN [C35K], the figure is -0.608 ± 0.054; as for RTVITEEFKVPDKMVGFIIGRGGEQISRIQAESGWKIQIASESSGIPERPCVLTGTPESIEQAKRLLGQIVDRCRN [C35W], -0.895 ± 0.054.
With RTVITEEFKVPDKMVGFIIGRGGEQISRIQAESGNKIQIASESSGIPERPCVLTGTPESIEQAKRLLGQIVDRCRN [C35N], the abundance fitness is -0.539 ± 0.11.
As for RTVITEEFKVPDKMVGFIIGRGGEQISRIQAESGYKIQIASESSGIPERPCVLTGTPESIEQAKRLLGQIVDRCRN [C35Y], the abundance fitness was -0.578 ± 0.12.
As for RTVITEEFKVPDKMVGFIIGRGGEQISRIQAESGHKIQIASESSGIPERPCVLTGTPESIEQAKRLLGQIVDRCRN [C35H], the figure is -0.585 ± 0.12.
With RTVITEEFKVPDKMVGFIIGRGGEQISRIQAESGPKIQIASESSGIPERPCVLTGTPESIEQAKRLLGQIVDRCRN [C35P], the abundance fitness was -0.758 ± 0.07.
Take RTVITEEFKVPDKMVGFIIGRGGEQISRIQAESGEKIQIASESSGIPERPCVLTGTPESIEQAKRLLGQIVDRCRN [C35E]: the abundance fitness is -0.539 ± 0.044.
As to RTVITEEFKVPDKMVGFIIGRGGEQISRIQAESGFKIQIASESSGIPERPCVLTGTPESIEQAKRLLGQIVDRCRN [C35F], the abundance fitness was -1.06 ± 0.12.

Source of the values: the Human Domainome abundance scans (Beltran et al. 2025).
